What all share (conditions): protein: recombinant; tags: N-terminal His tag (pETG10a); label: 3'-Cy5; single strand, 12 nt
Series [1] concerns the target T1, IFIT5 K150M (UniProt Q13325 1-482, K150M).
T1 sequence: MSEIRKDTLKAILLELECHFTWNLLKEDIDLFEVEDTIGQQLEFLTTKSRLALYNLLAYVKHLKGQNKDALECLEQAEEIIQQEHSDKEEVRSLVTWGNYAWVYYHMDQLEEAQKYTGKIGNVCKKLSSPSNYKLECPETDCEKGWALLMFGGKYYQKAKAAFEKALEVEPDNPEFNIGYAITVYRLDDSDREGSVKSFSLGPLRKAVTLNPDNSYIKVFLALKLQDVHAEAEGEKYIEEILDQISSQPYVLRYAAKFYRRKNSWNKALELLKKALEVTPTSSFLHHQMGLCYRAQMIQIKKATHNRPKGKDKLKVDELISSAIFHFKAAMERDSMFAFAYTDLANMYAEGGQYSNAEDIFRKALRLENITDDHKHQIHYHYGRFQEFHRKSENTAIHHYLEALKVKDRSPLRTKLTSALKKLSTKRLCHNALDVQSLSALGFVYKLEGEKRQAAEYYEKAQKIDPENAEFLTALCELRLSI
The experiment in a line: MST; apparent; 1 mM Mg2+; MST: PBS, 5% glycerol, 0.5 mM TCEP, 0.05% Tween20, +/-1 mM MgCl2 (K150M always with 1 mM MgCl2), 10 nM Cy5-RNA, 22 C, 10 min incubation; pH not stated.

The target in series [2] is T2, IFIT5 WT (UniProt Q13325 1-482).
T2 sequence: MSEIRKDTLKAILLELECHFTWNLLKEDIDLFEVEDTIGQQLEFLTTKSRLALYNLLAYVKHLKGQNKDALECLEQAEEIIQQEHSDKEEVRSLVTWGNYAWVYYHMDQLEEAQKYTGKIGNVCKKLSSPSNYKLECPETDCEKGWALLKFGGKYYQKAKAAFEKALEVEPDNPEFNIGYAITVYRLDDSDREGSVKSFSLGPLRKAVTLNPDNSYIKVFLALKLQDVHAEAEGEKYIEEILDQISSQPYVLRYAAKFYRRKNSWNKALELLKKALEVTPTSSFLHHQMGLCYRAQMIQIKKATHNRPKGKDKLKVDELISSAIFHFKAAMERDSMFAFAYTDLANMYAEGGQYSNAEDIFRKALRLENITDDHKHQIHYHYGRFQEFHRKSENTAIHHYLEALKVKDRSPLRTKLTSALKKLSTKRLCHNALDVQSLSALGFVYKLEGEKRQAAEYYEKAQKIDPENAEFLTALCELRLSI
The experiment in a line: MST; apparent; replicates with and without 1 mM Mg2+ pooled; MST: PBS, 5% glycerol, 0.5 mM TCEP, 0.05% Tween20, +/-1 mM MgCl2 (K150M always with 1 mM MgCl2), 10 nM Cy5-RNA, 22 C, 10 min incubation; pH not stated.

For series [3], the target named is T3, IFIT5 Q41E/K150M/R253M (UniProt Q13325 1-482, Q41E;K150M;R253M).
T3 sequence: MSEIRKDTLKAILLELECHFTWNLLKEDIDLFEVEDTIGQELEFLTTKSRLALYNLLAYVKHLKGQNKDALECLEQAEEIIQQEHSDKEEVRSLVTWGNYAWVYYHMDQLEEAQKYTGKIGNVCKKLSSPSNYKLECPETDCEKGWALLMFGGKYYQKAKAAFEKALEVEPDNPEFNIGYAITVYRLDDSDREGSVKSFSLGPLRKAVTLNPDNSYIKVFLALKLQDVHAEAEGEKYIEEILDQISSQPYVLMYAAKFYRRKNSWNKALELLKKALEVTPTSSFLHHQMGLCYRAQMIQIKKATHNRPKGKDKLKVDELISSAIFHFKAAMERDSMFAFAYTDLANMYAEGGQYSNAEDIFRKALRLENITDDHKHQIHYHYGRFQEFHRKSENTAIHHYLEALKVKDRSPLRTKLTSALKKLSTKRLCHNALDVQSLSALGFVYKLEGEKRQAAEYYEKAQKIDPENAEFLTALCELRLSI
Described as above.

The target of series [4] is T2, IFIT5 WT. The experiment in a line: MST; apparent, single replicate; no Mg2+ (assignment by word order); MST: PBS, 5% glycerol, 0.5 mM TCEP, 0.05% Tween20, +/-1 mM MgCl2 (K150M always with 1 mM MgCl2), 10 nM Cy5-RNA, 22 C, 10 min incubation; pH not stated.
The target of series [5] is T3, IFIT5 Q41E/K150M/R253M. Described as above.
Series [6] addresses T2, IFIT5 WT. The experiment in a line: MST; apparent, single replicate; 1 mM Mg2+ (assignment by word order); MST: PBS, 5% glycerol, 0.5 mM TCEP, 0.05% Tween20, +/-1 mM MgCl2 (K150M always with 1 mM MgCl2), 10 nM Cy5-RNA, 22 C, 10 min incubation; pH not stated.
For series [7], the target named is T3, IFIT5 Q41E/K150M/R253M. Described as above.

Consider 1 molecule from PMC9677429, “The Role of Electrostatic Interactions in IFIT5-RNA Complexes Predicted by the UBDB+EPMM Method”.

“And” between values parts separate entries of the source, which are not always exact repeats. Equal values may be shown once.

B1: 5'-ppp-AAAAAGGAAGGU-Cy5 (ssRNA)
RNA: AAAAAGGAAGGU
modifications: 5'-triphosphate
For B1, the Kd in series [1] is 204 nM; in series [2], 13.4 nM; in series [3] it was 1980 nM; in series [4] it was 8.87 nM; in series [5], 1700 nM; in series [6], 12.7 nM and 13.7 nM and 23 nM. For the same molecule, the Kd in series [7] turned out to be 2340 nM.
